According to publication PMC11886768 (2025):

Experiments:
AD-COP1 = AD-COP1 (UniProt P43254); experiment: yeast three-hybrid (Y3H) competition assay (BD-HY5, AD-COP1); conditions: read off a plot
E-COP1 = E-COP1 (UniProt P43254); experiment: mammalian three-hybrid (M3H) assay, GFP co-expressed as control third protein; conditions: CHO-K1 cells, 24 h, parent: est. 150, read off a plot
Sequence of E-COP1 (P43254 whole entry): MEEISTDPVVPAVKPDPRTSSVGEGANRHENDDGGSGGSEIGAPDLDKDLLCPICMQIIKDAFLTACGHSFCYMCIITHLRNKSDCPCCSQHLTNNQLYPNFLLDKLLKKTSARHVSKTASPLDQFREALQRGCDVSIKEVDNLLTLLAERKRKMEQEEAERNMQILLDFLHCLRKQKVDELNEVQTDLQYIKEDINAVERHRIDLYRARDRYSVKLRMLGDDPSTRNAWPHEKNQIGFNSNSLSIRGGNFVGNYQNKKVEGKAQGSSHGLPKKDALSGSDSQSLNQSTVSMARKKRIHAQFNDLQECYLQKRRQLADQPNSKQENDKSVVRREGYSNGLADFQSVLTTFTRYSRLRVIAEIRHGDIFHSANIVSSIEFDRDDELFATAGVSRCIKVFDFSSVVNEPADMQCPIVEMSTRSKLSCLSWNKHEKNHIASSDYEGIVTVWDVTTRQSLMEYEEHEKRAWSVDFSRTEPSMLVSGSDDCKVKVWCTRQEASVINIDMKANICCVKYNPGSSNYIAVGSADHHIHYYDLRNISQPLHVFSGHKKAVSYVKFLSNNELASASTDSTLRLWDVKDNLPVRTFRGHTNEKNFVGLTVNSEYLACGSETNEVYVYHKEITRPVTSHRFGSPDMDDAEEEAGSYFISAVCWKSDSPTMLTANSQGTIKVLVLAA

Sequence of AD-COP1 (P43254 whole entry): as above

Row | Substance | other: COP1-HY5 interaction signal (β-galactosidase activity) with the CCT1 variant as bridge protein (AD-COP1; 1 day in darkness, followed by exposure to 50 μmol m−2 s−1 blue light for 1 day, no-bridge control est. 5.7, higher signal = less displacement of HY5 by the …, parent: est. 1.7) [Miller units] | other: COP1-HY5 interaction signal (β-galactosidase activity) with the CCT1 variant as bridge protein (AD-COP1; darkness for 2 days, no-bridge control est. 8.5, higher signal = less displacement of HY5 by the CCT1 variant, parent: est. 3.1) [Miller units] | response (Au (SEAP/sNLuc)) (E-COP1; blue light (10 μmol m−2 s−1)) | response (Au (SEAP/sNLuc)) (E-COP1; darkness)
1 | CCT1 (yeast three-hybrid 'bridge protein') V548A; P549A | 6.9 | 7.8 |  | 
2 | HY5 fused to the herpes simplex virus-derived transactivation domain (VP16) (from UniProt O24646) HY5-VPAA (VP motif to AA; positions not printed) |  |  | 7 | 5
